Assay [1] deals with TIRC7 (human (endogenous in PBL)) (UniProt Q13488).
Assay [2] has the same target. The source holds these as a separate data set.

Sequence of UniProt Q13488 (Q13488 217-830): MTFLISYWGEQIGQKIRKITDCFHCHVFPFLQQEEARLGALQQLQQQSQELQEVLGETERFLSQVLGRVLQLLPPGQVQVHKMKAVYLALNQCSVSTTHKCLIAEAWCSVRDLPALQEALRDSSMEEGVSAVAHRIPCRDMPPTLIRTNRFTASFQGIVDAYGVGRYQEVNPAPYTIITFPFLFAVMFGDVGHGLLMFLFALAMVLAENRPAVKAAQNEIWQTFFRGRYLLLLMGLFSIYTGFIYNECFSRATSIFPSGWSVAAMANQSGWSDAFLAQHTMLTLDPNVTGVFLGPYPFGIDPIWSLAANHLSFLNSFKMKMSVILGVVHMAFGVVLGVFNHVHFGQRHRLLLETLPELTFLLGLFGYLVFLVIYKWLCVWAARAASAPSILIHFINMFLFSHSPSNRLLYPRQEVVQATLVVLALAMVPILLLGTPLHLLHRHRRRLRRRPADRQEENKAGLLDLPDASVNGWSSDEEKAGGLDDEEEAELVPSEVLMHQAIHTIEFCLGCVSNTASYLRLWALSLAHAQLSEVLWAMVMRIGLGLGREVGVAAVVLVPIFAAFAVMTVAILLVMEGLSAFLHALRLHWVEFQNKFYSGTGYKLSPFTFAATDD

For the substance “soluble HLA-DR alpha 2 fusion protein (entire human HLA-DR alpha 2 domain linked to an IgG1 Fc protein) (Fc fusion)”, in assay [1], the cells in G0/G1 cell cycle phase, human PBL activated with anti-CD3/CD28 48 h with sHLA-DRα2 50 µg/ml (propidium iodine, flow cytometry) stood at 89% and the subdiploid (apoptotic) cells 72 h after incubation of activated human PBL with sHLA-DRα2 came to 46.4%. Moreover, in assay [2], the apoptosis (Annexin V) of human CD4+ cells stimulated 72 h with anti-CD3/CD28, sHLA-DRα2 50 µg/ml was determined as 51% and the apoptosis (Annexin V) of human CD8+ cells stimulated 72 h with anti-CD3/CD28, sHLA-DRα2 50 µg/ml amounted to 54%.

(Values after article PMC2217592.)
